Results published in patent publication US7871610B2, “Antibodies to Tie1 ectodomain” (Dyax Corp., priority 2003, dated 2011).

Columns and labels:
[1] = biological target: T1, recombinant human Tie1-Fc (Homo sapiens, UniProt P35590); experiment: BIAcore, parental and germlined E3b Fabs on human Tie-1/Fc; assay type: binding; conditions: parental and germlined E3b Fabs, human Tie-1/Fc
T1 construct: selected against the Tie1 extracellular domain fused to human Fc or to a histidine purification tag
T1 sequence (P35590 22-759 limits assumed): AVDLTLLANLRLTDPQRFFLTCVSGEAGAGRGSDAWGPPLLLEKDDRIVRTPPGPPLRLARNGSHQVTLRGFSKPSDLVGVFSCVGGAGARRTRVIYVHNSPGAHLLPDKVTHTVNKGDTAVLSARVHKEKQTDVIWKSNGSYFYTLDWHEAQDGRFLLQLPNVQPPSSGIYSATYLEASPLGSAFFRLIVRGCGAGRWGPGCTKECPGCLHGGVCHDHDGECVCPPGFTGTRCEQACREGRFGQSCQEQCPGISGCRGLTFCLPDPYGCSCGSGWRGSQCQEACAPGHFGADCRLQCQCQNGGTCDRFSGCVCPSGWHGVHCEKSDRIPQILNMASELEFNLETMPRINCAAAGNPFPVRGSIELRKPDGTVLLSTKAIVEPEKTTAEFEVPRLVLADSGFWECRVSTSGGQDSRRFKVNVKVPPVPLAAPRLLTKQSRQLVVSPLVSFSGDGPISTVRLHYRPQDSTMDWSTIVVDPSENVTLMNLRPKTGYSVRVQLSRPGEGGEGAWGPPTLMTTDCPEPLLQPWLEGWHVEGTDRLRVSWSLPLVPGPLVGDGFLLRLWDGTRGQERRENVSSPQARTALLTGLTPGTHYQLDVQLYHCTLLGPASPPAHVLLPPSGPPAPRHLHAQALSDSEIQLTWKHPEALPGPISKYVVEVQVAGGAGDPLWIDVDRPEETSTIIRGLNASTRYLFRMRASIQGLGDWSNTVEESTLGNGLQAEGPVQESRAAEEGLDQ
Procedure: Recombinant human Tie-1/Fc was coated on a CM5 chip. The surface of the chip was first activated with a 7-minute pulse of 0.05 M NHS/0.2 M EDC, then Tie-1/Fc (2 μg/ml in 10 mM sodium acetate, pH 4.0) was run over the chip surface until 750 RUs were coated on the surface. All flow cells were subsequently deactivated with a 7-minute pulse of 1 M ethanolamine hydrochloride, pH 8.5. All further experiments were performed in HBS buffer.
The parental and the germlined E3b Fabs were prepared. A series of dilution (50, 25, 12.5, 6.25 and 3.125 nM) was prepared in HBS buffer. Samples were injected at 30 μl/min for 5.3 minutes using the KINJECT™ program. This was followed by a 10-minute dissociation phase, and the remaining Fab was stripped from the surface with a single 18-sec injection of 50 mM NaOH/1 M NaCl.
Sensorgrams were analyzed using the simultaneous ka/kd fitting program from the BIAEVALUATION™ software 3.1 assuming a 1:1 model.

[2] = biological target: T1, recombinant human Tie1-Fc; experiment: ELISA on recombinant human Tie-1-Fc; assay type: binding; conditions: soluble Fab 5 or 1 μg per 100 μl; 500 or 50 ng antigen per well
Procedure: To evaluate if the conversion of any of the somatic mutations in the framework of E3 back to germline residues had any effect on binding activity the soluble Fabs were produced. The soluble expression vector containing the parental E3 Fab and the germlined E3 Fab construct were grown overnight at 30° C. in 2×TY broth containing 100 μg/ml ampicillin and 2% glucose and use 4 ml of this overnight culture to inoculate 400 ml of 2×TY broth containing 100 μg/ml ampicillin and 0.1% glucose. Cells were grow at 37° C. until an OD600 of 0.8-1.0, 1 mM IPTG was added and the culture was maintained at 30° C. for 4 hours. The cultures were spun down at 4,000 rpm for 15 min at 4° C. […] Dialyze against PBS using dialysis cassettes (SLIDE-A-LYSER™ Dialysis Cassettes, MWCO 10,000, Pierce, cat. no. 66380) and determine the protein concentration from the absorbance at 280 nm assuming that a 1 mg/ml solution has an absorbance of 0.86. The quality of the preparations can be analyzed by reducing and non-reducing SDS-PAGE.
Wells of an IMMULON™ 2 HB plate coated overnight with 500 ng or 50 ng of purified recombinant human Tie-1-Fc target antigen per 100 microliters 0.1 M sodium bicarbonate buffer, pH 8.5. […] After washing the wells seven times 100 microliters TMB-H2O2 solution was added to each well and the plate read at 630 nm in an ELISA. […]

B1: E3: human anti-Tie1 antibody from Fab phage library; HC SEQ ID NO:114, LC SEQ ID NO:116 (antibody, V domains shown)
VH: EVQLLESGGGLVQPGGSLRLSCAASGFTFSMYGMVWVRQAPGKGLEWVSVISPSGGNTGYADSVKGRFTISRDNSKNTLYLQVNSLRAEDTAVYYCARAPRGYSYGYYYWGQGTLVTVSSASTKGPSVFPLAPSSKSTSGG
VL: DIQMTQSPLSLSASVGDRVTITCRASQGIGHYLAWYQQKPGKVPKLLIYTASTLQSGVPSRFSGSGSGTDFTLTINSLQPEDVATYYCQQFNSYPHTFGQGTRLDIK
modifications: Synthetically generated peptide
In the case of B1, the “effect of germlining on the affinity against Tie-1/Fc” value [1] is reported as “little or no effect on the affinity” and the “binding to recombinant human Tie-1-Fc in ELISA” value [2] is reported as “bound”.
